Experimental findings from patent US20200399385A1 (Bristol-Myers Squibb, published 2020) are described below.

Test [1] deals with T1, human OX40 on cells (human, UniProt P43489 29-277).
T1 construct: also called hOX40-293 cells; hOX40-HT1080
T1 sequence: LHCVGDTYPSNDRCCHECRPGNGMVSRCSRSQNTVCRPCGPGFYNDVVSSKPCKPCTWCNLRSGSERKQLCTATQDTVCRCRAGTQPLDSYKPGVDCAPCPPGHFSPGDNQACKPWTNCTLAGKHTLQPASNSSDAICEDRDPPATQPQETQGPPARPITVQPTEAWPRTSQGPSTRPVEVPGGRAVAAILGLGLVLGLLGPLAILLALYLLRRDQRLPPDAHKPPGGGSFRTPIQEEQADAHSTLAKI
The test can be described thus: FACS, blocking of OX40L-His (0.2 µg/mL) binding to hOX40-293 cells. The protocol:
Briefly, 293 cells stably transfected with human OX40 were first pre-incubated with varying concentrations of anti-OX40 antibodies. […] The fluorescence intensity of the staining was measured using a FACSCanto II flow cytometer (Becton Dickinson).
In general terms: In flow cytometry, cells or beads pass a laser one at a time.

The target in test [2] is T1, human OX40 on cells. The test can be described thus: FACS, activated human T cells; mean ± SD, n=2. The protocol:
Cells were activated for several days before the binding assay in order to induce OX40 expression. Briefly, PBMCs were cultured for three or four days with magnetic beads coated with anti-human CD3 plus anti-human CD28, in the presence of recombinant human IL-2. On the day of the assay, the beads were removed and the cells stained with a titration of each anti-OX40 antibody. Bound antibodies were detected with a fluorescently conjugated anti-human IgG polyclonal secondary antibody, and the cells were co-stained for CD4 and CD25 to detect activated CD4 T cells. The fluorescence intensity of the staining was measured using a FACSCanto II flow cytometer (Becton Dickinson). The geometric mean fluorescence intensity (GMFI) or median fluorescence intensity (MedFI) of anti-OX40 antibody staining was calculated for the CD4+CD25+ population (FACSDiva software). EC₅₀s for antibody binding were calculated using GraphPad Prism software.

Test [3] has as its target T2, his-tagged soluble human OX40 (huOX40-6xhis) (human, UniProt P43489 29-214).
T2 construct: made in-house; also called Human-OX40-6XHIS; hOX40; not shown: hexahistidine tag
T2 sequence: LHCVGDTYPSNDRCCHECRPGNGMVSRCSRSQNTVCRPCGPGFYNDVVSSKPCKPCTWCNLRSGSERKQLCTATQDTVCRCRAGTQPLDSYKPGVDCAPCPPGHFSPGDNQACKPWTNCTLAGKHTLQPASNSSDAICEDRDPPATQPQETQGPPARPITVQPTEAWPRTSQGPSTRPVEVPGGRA
Nature of the test: SPR, mAb captured on anti-human CH1, OX40-6XHIS analyte, 1:1 fit. The procedure: The affinity of several OX40 antibodies for soluble human OX40 was tested by SPR analysis. […] Human-OX40-6XHIS antigen in either a single concentration of 400 nM or a 1:2 serial dilution from 400 nM was used. Experiments were carried out on BIACORE® T200 or BIACORE® 3000 SPR instruments. Data was fit to a 1:1 model.
A general note: In SPR one partner is held on a chip, and binding of the other changes the refractive index at the surface.

For test [4], the target named is T1, human OX40 on cells. The test can be described thus: FACS competition on hOX40-293 cells: unlabeled antibody first, then PE-labeled L106 (2.5 ug/mL per the text). The protocol:
Briefly, 293 cells stably transfected with human OX40 were first incubated with varying concentrations of unlabeled anti-OX40 antibodies. […] The fluorescence intensity of the staining was measured using a FACSCanto II flow cytometer (Becton Dickinson).

In test [5] the target is T3, cynomolgus OX40 on cells (cynomolgus, UniProt P43489 29-277 (human entry)).
T3 construct: also called cynoOX40-CHO
T3 chain: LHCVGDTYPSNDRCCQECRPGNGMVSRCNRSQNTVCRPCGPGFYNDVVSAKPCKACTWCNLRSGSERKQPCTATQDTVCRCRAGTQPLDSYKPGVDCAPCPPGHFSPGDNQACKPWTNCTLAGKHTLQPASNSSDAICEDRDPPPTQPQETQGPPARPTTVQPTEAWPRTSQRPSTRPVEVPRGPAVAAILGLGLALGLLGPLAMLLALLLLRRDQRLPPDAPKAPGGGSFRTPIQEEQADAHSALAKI
Nature of the test: FACS, activated cyno CD4 T cells. The protocol: (§1) Briefly, cells were activated for several days before the binding assay in order to induce OX40 expression. Total leukocytes were isolated from cynomolgus macaque peripheral blood by lysis of red blood cells using an ammonium chloride buffer. The leukocytes were then cultured for four to five days with in flasks pre-coated with anti-human CD3 plus anti-human CD28 antibodies that cross-react with cynomolgus macaque, in the presence of recombinant human IL-2, in order to expand and activate T cells. On the day of the assay, the cells were harvested and stained with a titration of each anti-OX40 antibody. Bound antibodies were detected with a fluorescently conjugated anti-human IgG polyclonal secondary antibody, and the cells were co-stained for CD4 and CD25 to detect activated CD4 T cells. The fluorescence intensity of the staining was measured using a FACSCanto II flow cytometer (Becton Dickinson). The geometric mean fluorescence intensity (GMFI) or median fluorescence intensity (MedFI) of anti-OX40 antibody staining was calculated for the CD4+CD25+ population (FACSDiva software). Dose-response curves were generated and EC50s for antibody binding were calculated using GraphPad Prism software.
The same experiment was performed with anti-OX40 antibodies with variable region substitutions.

For test [6], the target named is T1, human OX40 on cells. Nature of the test: cell-based or functional assay.
The target of test [7] is T3, cynomolgus OX40 on cells. The test can be described thus: FACS, activated cyno T cells; mean ± SD, n=4; mean ± SD of n=4 experiments (Table 8), not the single experiment of FIGS. 12A and 12B. The protocol: as §1
For test [8], the target named is T3, cynomolgus OX40 on cells. The test can be described thus: FACS, activated cyno T cells; n=1. The protocol:
as §1

Test [9] has as its target T1, human OX40 on cells. Nature of the test: FACS competition on HT1080-hOX40 cells against APC-OX40.1 (FL2 MFI); the table gives no unit, axis 'Ab conc nM'. The procedure:
This experiment was performed to test the cross-blocking properties of various anti-OX40 antibodies to assess binding specificities. […] Cells were washed and if necessary further incubated in the presence of streptavidin-APC conjugate under the same conditions. After the final wash, cells were analyzed on a FACSCanto flow cytometer (BD Bioscience, San Jose, Calif.). Mean fluorescence intensity (MFI) signal was proportional to bound conjugated antibody.

Test [10] has as its target T1, human OX40 on cells. Nature of the test: FACS, activated human T cells; mean ± SD, n=7.
In test [11] the target is T3, cynomolgus OX40 on cells. The test can be described thus: FACS, activated cyno T cells; mean ± SD, n=5. The protocol:
as §1

Test [12] has as its target T1, human OX40 on cells. The test can be described thus: cell-based or functional assay. The source holds these as a separate data set.
For test [13], the target named is T1, human OX40 on cells. The test can be described thus: FACS competition on hOX40-293 cells against biotin-OX40.5 (spike biotOX.5 @ 1.0 ug/mL, streptavidin-APC); partial inhibition, FL4-MFI falls from about 29000 to about 17000; the table gives no unit, axis in nM.

B1: 18E9 (antibody, V domains shown)
VH: EVQLVQSGGGLVHPGGSLRLSCAHSGFTFTSSAMHWVRQAPGKGLEWISAIGTGGDTYYADSVKGRFTISRDNAKNSLYLQINSLRAEDMAVYYCARDFYDILTGIFDYWGQGTLVTVSS
VL: DIQMTQSPSSVSASVGDRVTITCRASQGISSWLAWYQHKPGKAPKLLIYAASSLQSGVPSRFSGSGSGTDFTLTISSLQPEDFATYYCQQANSFPSTFGQGTKVEIK
notes: human mAb from hybridoma; also called 18E9.G5.H4; 18E9.G5
In the case of B1, the EC50 (usually the concentration that produces a half-maximal response) with human OX40 on cells [1] is 0.48 nM; with human OX40 on cells [2] it was 0.22 nM; with cynomolgus OX40 on cells [5] it was 1 to 1.5 nM; with cynomolgus OX40 on cells [7] it was 41.7 nM. Moreover, the Kd (in general, a measure of binding affinity in units of concentration) in test [3] turned out to be 2.04 nM. Besides, the koff – broadly, the first-order rate constant of dissociation – in test [3] stood at 0.000139 s⁻¹. The kon (as a rule, a measure of how fast the partners come together) in [3] amounted to 68300 M⁻¹ s⁻¹. Also, in the test with human OX40 on cells [4], the “IC50 (read off the curve)” value was around 1 µg/mL. Also, in the test with human OX40 on cells [6], the “Proliferation EC50, CD4 T cells + CHO-CD3-CD32A” value (shortened to “Proliferation EC50”) was 0.01 nM.

B2: 14B6 (antibody, V domains shown)
VH: EVQLEQSGAEVKKPGESLKISCKGSGYSFTSNWIGWVRQMPGKGLEWMGFIYPGDSDTRYSPSFQGQVTISADKSISTAYLQWSSLKASDIAMYYCARYGDDWYFDLWGRGTLVTVSS
VL: EIVLTQSPATLSLSPGERATLSCRASQSVSSYLAWFQQRPGQAPRLLIYDASNRATGIPARFSGSGSGTDFSLTISSLEPEDFAVYYCQQRGDWPITFGQGTRLEIK
notes: also called 14B6.C5.C8; 14B6.C5
In the test with human OX40 on cells [1], B2 returned an EC50 of 1 nM. The molecule further came in with an EC50 in the test with human OX40 on cells [2] of 0.18 nM. In test [3], this molecule had a Kd of 8.84 nM, a koff of 0.000654 s⁻¹ and a kon of 74000 M⁻¹ s⁻¹. In the test with cynomolgus OX40 on cells [8], the midpoint of the response, the EC50, lay at 0.31 nM. In the test with human OX40 on cells [9], the IC50 (as a rule, the concentration that gives 50% inhibition) was determined as 0.7 nM. Moreover, the “Proliferation EC50” value with human OX40 on cells [6] was 0.012 nM.

B3: OX40.6 (antibody, human IgG1, kappa, V domains shown)
VH: EVQLVQSGGGLVQPGGSLRLSCAGSGFTFSNYAMYWVRQAPGKGLEWVSAIGIGGDTFYTDSVKGRFTISRDNAKNSLSLQMNSLRAEDTAVYYCARMGTGYFFDYWGQGTLVTVSS
VL: EIVLTQSPATLSLSPGERATLSCRASQSVSSYLAWYQQKPGQAPRLLIYDASNRATGIPARFSGSGSGTDFTLTISSLEPEDFAVYYCQQRSNWPLTFGPGTKVDIKR
In turn, B3 registered an EC50 with human OX40 on cells [10] of 0.13 nM. Further, the response in the test with cynomolgus OX40 on cells [11] was half-maximal at 0.11 nM (EC50). For the same molecule, in the test with human OX40 on cells [12], the “IL-2 EC50, SEB PBMC, donor BMS-001” value was 0.49 nM; the “IL-2 EC50, SEB PBMC, donor BMS-004” value was determined as 0.48 nM; the “IL-2 EC50, SEB PBMC, donor BMS-009” value is 0.45 nM; the “IL-2 EC50, SEB PBMC, donor BMS-012” value was 0.66 nM. Further, in the test with human OX40 on cells [12], the “IL-2 EC50, SEB PBMC, donor BMS-015” value was around 0.46 nM; the “IL-2 EC50, SEB PBMC, donor BMS-016” value was determined as 0.29 nM; the “IL-2 EC50, SEB PBMC, donor WB10024” value was around 0.42 nM; the “IL-2 EC50, SEB PBMC, donor WB10025” value is around 0.85 nM. In the test with human OX40 on cells [12], the “IL-2 EC50, SEB PBMC, donor WB10026” value worked out at 0.28 nM; the “IL-2 EC50, SEB PBMC, donor WB10027” value turned out to be 0.45 nM; the “IL-2 EC50, SEB PBMC, donor WB10137” value was determined as 0.56 nM; the “IL-2 Mean EC50, SEB PBMC, all donors” value worked out at 0.46 nM. In the test with human OX40 on cells [13], this molecule had an EC50 of 0.857 nM. In the test with cynomolgus OX40 on cells [5], this molecule returned an EC50 of at most 0.12 nM. In addition, in the test with human OX40 on cells [6], the “IFNγ EC50, CD4 T cells + CHO-CD3-CD32A” value is 0.033 nM and the “Proliferation EC50” value was 0.032 nM.
